Laboratory results taken from the supplement of paper PMC12042874.
± gives the uncertainty stated by the source.

Assay: amyloid nucleation score (Sup35N fusion, yeast selection) (log enrichment); library NNK3; higher = more nucleation; inactive = no reads after selection
Method in brief: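 The nucleation score, computed with DiMSum, is the log enrichment of output over input reads, centred on the mode score of non-aggregating sequences. Sequences with under 100 input reads were dropped. Reads were generated by Illumina sequencing of plasmid inserts from psi-negative yeast with Sup35N fused to peptides of 20 random codons, induced with 100 μM copper sulfate for 24 hours and grown 7 days at 30°C on medium lacking adenine and uracil.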

| Substance | amyloid nucleation score |
| --- | --- |
| GIYVVLNCISIFRLWLLSER | inactive |
| ARRNYHRAINFGGSCAIINK | inactive |
| STHKFNRNFIMSFAWLFICW | inactive |
| GVLLTYSCSRQLSPDFNCFC | 1.62 ± 0.073 |
| MGRLKCTVKPVSYEMWKVYA | inactive |
| TQDGELV | inactive |
| MQLDYSSSVLNMFLDANILY | inactive |
| CENYRMGYRNVRVSFAPPFK | inactive |
| ISDRFQAESCSRCSLVSSMF | inactive |
| YIFVALYPSHT | 0.443 ± 0.28 |
| KMSNGDTNDANVFIVRDSWL | inactive |
| YRAKNSDRCPGDAYTYFVLR | inactive |
| SVIRWFVTLWLGEHLRASDT | inactive |
| NCGVMEYGGILISYFE | inactive |
| NIRWGTYVSKFVLYLAITTR | inactive |
| VWSHSI | inactive |
| PNYPDLYHFLICSLCSSFVT | 1.84 ± 0.076 |
| DDDLHWWKYRCVACDSLWEI | inactive |
| QVPLCHMAGKQNLVSRAQTC | inactive |
| SSVWIFRWTICNWESKF | 2.45 ± 0.052 |
| FLRKGYFNSTSFTDALGGNL | -1.26 ± 1.8 |
| ILYGKVTKKRGSKALSVRVM | inactive |
| GFDMRVGDRMYRDYGMMVGA | inactive |

| Substance | amyloid nucleation score |
| --- | --- |
| YSVPCSWWTLQLGILPLSRR | inactive |
| VYIRQLRMPAFCLTSGRALD | inactive |
| NRVLSVFDLFLRVAFASRFR | inactive |
| IIGPGYFFYLKLYA | 0.549 ± 0.27 |
| CSLYNLDRVTWTG | 0.219 ± 0.41 |
| SFCIIY | inactive |
| SISTQCWSPYVAFHSWKTH | 0.416 ± 0.79 |
| RNFVEANAYSFRLVTVTLSM | inactive |
| SEMELDLSFSPPYRGLPIIV | inactive |
| KWIVQAILSSEL | inactive |
| MTPTMDENSFLDSSISQMLW | inactive |
| ILRNMDGRRNSVVRDVVRVK | inactive |
| SMLQAMEYYNIGIVYNHKIW | inactive |
| MPGAALLVVLFSGFVYREAM | inactive |
| LNQLRSDITGLMSMTWDDLC | inactive |
| HSDVWSVRSGAYLLLYIQTM | inactive |
| MRRKDKNIRVDYRVAGGYRD | inactive |
| VNITLLRCEGSGMFGRSSKL | 1.13 ± 0.11 |
| KSGTGSNWFWKGGLSGTKKH | inactive |
| VSLMP | inactive |
| NLYMLNTQGMSVLISCVGRI | 0.996 ± 0.091 |
| HFSLSG | inactive |
| TSTRSEAFRVVVTLPVAVNW | inactive |

| Substance | amyloid nucleation score |
| --- | --- |
| MLMAPSYEYT | -0.209 ± 0.78 |
| RTWDLDVGVLRLWVLSIG | inactive |
| VLTLLMKVEHTGVSHSVGRV | 1.02 ± 0.19 |
| VASIFRVYAVVGWSVVLVGV | inactive |
| GDLVSIWAMRFELRKSKEMR | inactive |
| VGSIARLFVQTAMPVPKLAR | inactive |
| RNLSKIRMPMVVNNTEY | inactive |
| IYYFSLSMVLRCSEWTLYVY | inactive |
| CFNRITDC | inactive |
| ASLRLLVLVNSMWVGFFFNS | inactive |
| TSLLGLRKHFLPHLIYMRNS | inactive |
| FMIYYLGLFRR | inactive |
| DSCTEVFVKGVTRSVIVGKG | inactive |
| FTGAMAFFLWFIQDYWFTGW | inactive |
| YAARNWIVQVD | inactive |
| TCEWLSNYFKDLFIMVLSIS | inactive |
| DQIYSECLV | inactive |
| PTDIGGNPAGPGEFLIGTGW | inactive |
| SGKGE | inactive |
| NRVFPANLSSLSSCSTFTLW | inactive |
| SRWEKSFALICAS | inactive |
| FHTSKLHRFPHLK | inactive |
| VYLHIVHCMGYVNDQGRNRS | inactive |

| Substance | amyloid nucleation score |
| --- | --- |
| NRIFIGQVFRIIGPWLGMYH | inactive |
| LCHSSRGDIH | inactive |
| FVRGTVWKSTGDVMDAVPAT | inactive |
| NGMASMIRGIYNSVPHIRGL | inactive |
| NPLYVFDRI | -0.71 ± 0.53 |
| DHLWIPPWLYAPAMLWSWML | inactive |
| GSAVVAAECIGKRC | inactive |
| HQFFVVNSRDWLGHSSKFRF | 0.814 ± 0.12 |
| EWKVLYFFGDAFRLFNRWSG | inactive |
| DPTSLGRQRLTRDKIPQNWS | inactive |
| HSLLMCSMLLRFYVQYPICI | inactive |
| TLRLLDTVMWHKLGGTRAMS | inactive |
| YELMIFVTELALLDEILPEQ | inactive |
| ADVLLMRDRAFRRGSWRMAR | inactive |
| CNGLNRIVDLNWNMMSIMRS | inactive |
| NRKGIR | -0.009 ± 0.58 |
| YGTNQMTLPKCRYWGFYREE | -0.149 ± 0.7 |
| GKSRFRLRDAWWRLVTQQRR | inactive |
| HLRVMLLCFREYWDYAIMAL | inactive |
| GASSIFLIVRSDGSYFSPD | inactive |
| IFNWPSQTVLHIYKSAHVNM | 2.35 ± 0.066 |
| YFNLITAYKVLSAHGRTLWR | inactive |
| LFMTRSFILYFTYPFRYGVV | inactive |

| Substance | amyloid nucleation score |
| --- | --- |
| IIVSRWLWWDIGVSRNW | inactive |
| RWDFTSDSISRILTPLNVAK | 0.836 ± 0.13 |
| IWYGLDIWRPLCIGAPMVKD | inactive |
| EGFFYCCHFFRLYYNVVVLL | 2.02 ± 0.064 |
| KWFAATVLSNKPREEKRMVT | inactive |
| GSGEVWWVGCRTFFKTG | inactive |
| LYIPMQLQCCAIMEGYAILF | 1.6 ± 0.078 |
| NMGTGGRLEGPVDSGHSEKF | inactive |
| ILFVAGIETFSALSFRWTGV | inactive |
| FSILAFMSDLLS | inactive |
| SLYVSVLYIYRDY | 1.77 ± 0.077 |
| HVRDTKRVSLKRSTYADRGG | inactive |
| QFAKIPIALTSVYRIKDGLY | inactive |
| PRQTVISASQPDLNIRGFLC | inactive |
| YNFTSFLLIAGNAGSSSSRK | 2.04 ± 0.073 |
| FAGCTVGLTNYKRLWICVN | 0.092 ± 0.72 |
| NSNIQKHICVQFVKRWLEPC | inactive |
| TANCLVCVTCSGLMRTT | 2.82 ± 0.054 |
| HGNRVFYFELHSYPVLDSAM | 0.984 ± 0.17 |
| NYWEIEYGVAGCSFLEGMRH | inactive |
| SLVMAEVITPIGLSFCSNYT | inactive |
| GCLYGSSSV | inactive |
| CYSVDRDV | inactive |

| Substance | amyloid nucleation score |
| --- | --- |
| MSIVAGENLIGKV | inactive |
| YLSEPGNYRVSNVIGCNRID | inactive |
| MTWNVGRADGFLRSSCSNFR | inactive |
| SSMCVLCWTIVSVRNEAVEG | 1.9 ± 0.098 |
| YDVTSDR | inactive |
| SLDLENILSAE | inactive |
| GTQRVAIEDSGVIR | inactive |
| LEAHESIRFCP | inactive |
| LLFALDGFIAGWMCMWGDRF | inactive |
| FFKYYG | inactive |
| TNESIMCGLAT | inactive |
| KAIDFADDELRPIYMTFRVQ | inactive |
| ETYYFSVGFFY | inactive |
| DCVYSSPCGVALIDLGAGLK | inactive |
| CLVNWPMWENPWSPHFGSNY | inactive |
| FLPDSFESYEKEVHTMDESS | inactive |
| HSVWVYKHGLCDMWGGLTLI | inactive |
| HSVGWHFPLCFSTQMTLVRS | inactive |
| SVLFMRRLYSRMA | inactive |
| LPRPFSYSGLR | -0.289 ± 0.59 |
| CADGSSFRETPSNFTHPNIL | inactive |
| FRVVNMSWCAPNLTLRFKYL | inactive |
| MFEYLWEENMSLIYSKVDCG | inactive |

| Substance | amyloid nucleation score |
| --- | --- |
| GYGCVTKV | inactive |
| KRCWLWWIKVCTKMLLEVSS | inactive |
| SLSLRWFVGCKGSDGSALQC | inactive |
| LSLLSFNGIGHFLIVRKRYK | inactive |
| NAYVEGRSWVLVIENKDFAV | inactive |
| RYSDHRGIKAVGFAHCFL | inactive |
| VSVLRWLKRLDLHCGGV | inactive |
| TGIGSLCVLRLTYFIRVSIA | inactive |
| FKCAADCVFLALYYMDGWKS | inactive |
| LLFSGHYVGAYLGYVFPICS | inactive |
| YLWTTLCKPRVDFRAEYRDL | 2.05 ± 0.058 |
| SNAFVYFRFLTFDSRFCCYY | 1.56 ± 0.074 |
| KFRKTRSKR | inactive |
| QGMSAFYYVYGLKLWLHLLL | inactive |
| SWLFVDLYSFHFCFSNYVSY | inactive |
| SVIRVMSFG | inactive |
| SLNFLR | 0.937 ± 0.39 |
| CRCMTR | inactive |
